The record followed here is US8017326B2, “Methods of modulating cell death based on the Bit-1/AES regulatory pathway” (Sanford-Burnham Medical Research Institute, priority 2002, dated 2011).

The test system of one test is HOP92 cells. Kind of test: Percentage of GFP-positive detached cells after transfection. The format is cell-based. As to conditions: 72 hours after transfection; cells express only negligible amounts of AES. The protocol: To determine if Bit1 and AES are both required for apoptosis induction, HEK 293T, HOP92, and CHO cells were transfected with a GFP (vector), GFP-Bit1, or GFP-AES fusion protein constructs, as indicated in FIG. 3E. The cells were examined 48 hours (HEK 293T and CHO) or 72 hours (HOP92) after transfection, and the percentage of GFP-positive detached cells was measured.
Because the HEK 293T cells lack detectable Bit1 activity, it seemed possible that AES required endogenous Bit1 for the pro-apoptotic activity. An NIH data bank identified HOP92 as a cell line that expresses only negligible amounts of AES. […] CHO cells (FIG. 3E) and HeLa cells, which express both Bit1 and AES, underwent apoptosis upon transfection with either protein.

In another test the test system is Thymosin β-4. Kind of test: Northern blot of ecdysone-induced Bit1 or AES cell lines. The format is cell-based, human. The conditions noted are these: ecdysone-inducible ECR-293 cell line expressing Bit1 or AES. The protocol:
(§1) To determine whether the Bit1/AES pathway can regulate the transcription of genes other than Bcl-2, two stable cell lines were established expressing either-Bit1 or AES under control of an ecdysone-inducible promoter. To detect genes regulated by Bit1 or AES, probes were prepared from the ecdysone-induced cell lines and used to screen microarrays representing 19,000 human cDNAs. […] Down-regulation of HSP-70 and thymosin 4 in cells induced to express Bit1 or AES was confirmed by Northern blot analysis (see FIG. 7).
(§2) Northern blot analysis was performed as follows. Total RNA (10 μg) was electrophoresed on a 1% agarose-formaldehyde gel and transferred to nitrocellulose filters. The filters were hybridized using the same RNA probes as in the microarray experiments in Rapid-hyb buffer and washed according to the manufacturer's instructions (Amersham-Pharmacia).

The subject of test [1] is Heat Shock 70 kD protein 1A. The test is described as above. The format is cell-based, human. As to conditions: ecdysone-inducible ECR-293 cell line expressing Bit1 or AES. How it is done:
as §1, §2

Another test deals with HEK 293T cells. Kind of test: Anoikis of attached or detached (poly-HEMA) transfected cells. The format is cell-based, human. The protocol:
The role of Bit1 in the tendency of detached cells to undergo apoptosis (anoikis in the strictest sense) was then examined. HEK 293T cells were transfected with C-terminally myc-tagged (mitochondrial) Bit1 or with empty vector, and the cells were cultured either on tissue-culture plates (attached) or on poly-HEMA (detached) for 48 hours. The number of attached cells (10^6) was the same whether the cells were transfected with Bit1 or vector (assigned as 100% in FIG. 8H).
As is shown in FIG. 8H, Bit1 and control transfected cells had the same level of spontaneous apoptosis when grown attached to a culture dish. In striking contrast, detachment induced a higher level of cell death in the Bit1-transfected cells than in the control cells. Given that the transfection efficiency was about 50-70% in the 293T cells, the nearly 4-fold higher apoptosis level of the Bit1-transfected cells translates into more than 5-fold difference in anoikis sensitivity.

The next test has as its system Bcl-2 promoter. The test can be described thus: Bcl-2-promoter-luciferase reporter assay in HEK 293 cells. The format is cell-based, human. The conditions noted are these: luciferase after 24 hours. How it is done: Bit1 activity was analyzed in the human embryonic kidney cell line, HEK 293. […] Furthermore, HEK 293 cells were transfected with a Bcl-2-promoter-luciferase reporter construct together with increasing amounts of Bit1 expression construct; Bcl-2 transcription was measured by quantifying luciferase […] after 24 hours in culture. In agreement with the CHO cell results, transcription from the Bcl-2 promoter was suppressed in the Bit1-transfected HEK 293 cells (see FIG. 1B). […] In particular, the percentages of annexin V-positive cells (lower right quadrants) are about 1.4% in the control and about 4.7% in the Bit1-transfected cells.
A general note: In a reporter assay the amount or activity of a reporter protein is the signal.

Test [2] addresses T1, AES (Homo sapiens, UniProt Q08117).
T1 construct: expressed in transfected cells; host or cells: yeast strain AH109
T1 sequence (Q08117 1-197): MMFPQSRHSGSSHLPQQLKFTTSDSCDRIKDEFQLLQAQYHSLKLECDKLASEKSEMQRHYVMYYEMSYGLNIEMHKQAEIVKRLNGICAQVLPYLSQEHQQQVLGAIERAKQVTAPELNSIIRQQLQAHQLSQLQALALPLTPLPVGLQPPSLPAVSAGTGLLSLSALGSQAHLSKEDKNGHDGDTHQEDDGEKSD
The test can be described thus: Co-immunoprecipitation of exogenously expressed tagged Bit1 and AES. As to conditions: immunoprecipitated with anti-flag, immunoblotted with anti-myc. The format is binding. The protocol: Tagged Bit1 and AES were transfected into cells, and cell extracts were immunoprecipitated with anti-flag and immunoblotted with anti-myc. Equal loading of the samples was confirmed by immunoblotting of the whole extract with anti-flag.
Immunoprecipitation and immunoblotting were performed essentially as follows. Cells were transfected with full-length clones for Bit1 and AES, which were obtained by PCR from EST clones using Pfu enzyme (Stratagene; La Jolla, Calif.) and cloned into pCMV-Myc (Clontech) or pCMV-flag (Sigma; St. Louis, Mo.). After 24 to 48 hours, cells were harvested in ice-cold NP-40 lysis buffer (1% NP-40; 20 mM Tris-HCl, pH 7.4; 150 mM NaCl; 10% glycerol, 2 mM sodium vanadate; 1 mM phenylmethyl sulfonylfluoride; 10 μg/ml leupeptin; and 5 μg/ml aprotinin) and lysed at 4° C. for 15 minutes. Lysates were incubated for two hours with the indicated antibodies, and the antibody complexes precipitated with 20 μl of Gammabind (Amersham-Pharmacia; Piscataway, N.J.) for an additional hour. After washing the beads, bound proteins were solubilized in SDS-PAGE sample buffer. Western blot analysis was performed according to standard procedures.
Background: Immunoblotting shows a protein as a band on a membrane.

Test [3] addresses T1, AES. The test can be described thus: Yeast two-hybrid analysis. The format is binding. The conditions noted are these: yeast co-transformed with vectors encoding both Bit1 and AES. How it is done:
To explore the mechanism whereby Bit1 induces cell death, a yeast-two-hybrid screening assay was performed to search for binding partners for the Bit1 protein. Full-length Bit1 cDNA was fused to the Gal4 DNA-binding domain in the pGBKT7 vector and used as bait; a human fetal brain cDNA expression library fused to the Gal4 transcriptional activation domain was screened in cells expressing the Bit1/GAL4 DNA-binding domain fusion. Approximately one million transformants from the cDNA library were screened, and about 100 clones positive for both nutritional selection and α-galactosidase activity were obtained.
The ability of AES to interact with Bit1 was confirmed in mammalian cells.
Yeast two-hybrid screening was performed as follows. Full length CGI-147 was cloned in-frame with the Gal4 DNA binding domain in vector pGBKT7 and used to screen a yeast two-hybrid library derived from human fetal brain (Clontech). Yeast strain AH109 was co-transformed with PGBKT7-Bit1, pACT-2-AES or both, and growth selected in SD medium -ADE/-His/-Leu/-Trp and assayed for α-galactosidase activity according to the manufacturer's instructions (Clontech).

B1: Bit1: human Bit1 polypeptide of 179 residues (SEQ ID NO:2), pro-apoptotic, expressed in cells by transfection (protein, listed as Homo sapiens)
chain: MPSKSLVMEYLAHPSTLGLAVGVACGMCLGWSLRVCFGMLPKSKTSKTHTDTESEASILGDSGEYKMILVVRNDLKMGKGKVAAQCSHAAVSAYKQIQRRNPEMLKQWEYCGQPKVVVKAPDEETLIALLAHAKMLGLTVSLIQDAGRTQIAPGSQTVLGIGPGPADLIDKVTGHLKLY
Take B1: the “apoptosis induction in HOP92 cells” value in the test on HOP92 cells is “resistant”. Besides, the “Northern result, suppression of Thymosin β-4” value in the test with Thymosin β-4 amounted to 5 fold. Further, in test [1], the “Northern result, suppression of Heat Shock 70 kD protein 1A” value is reported as 3 fold. The “reduction of the number of surviving cells in detached cultures” value in the test with HEK 293T cells (C-terminally myc-tagged Bit1, poly-HEMA, 48 hours, 8% in the vector transfection) was determined as 30%. In addition, in the test on HEK 293T cells (HEK 293T cells, detached), the “apoptosis level of Bit1-transfected cells versus control cells, detached” value is listed as approximately 4 fold. The “difference in anoikis sensitivity” value in the test on HEK 293T cells (corrected for transfection efficiency of about 50-70%) was “more than 5 fold”. The “transcription from the Bcl-2 promoter” value in the test with Bcl-2 promoter is reported as “suppressed”. Further, in the test with AES [2], the “co-immunoprecipitation with AES” value was “confirmed interaction”. Further, the “interaction with AES, growth of co-transformed yeast” value with AES [3] was “yeast grew”.
